The labels stand for the following.
B1: Azoarcus group I ribozyme (parent)
chain: GUGCCUUGCGCCGGGAAACCACGCAAGGGAUGGUGUCAAAUUCGGCGAAACCUAAGCGCCCGCCCGGGCGUAUGGCAACGCCGAGCCAAGCUUCGGCGCCUGCGCCGAUGAAGGUGUAGAGACUAGACGGCACCCACCUAAGGCAAACGCUAUGGUGAAGGCAUAGUCCAGGGAGUGGCGAAAGUCACACAAACCGG

Our source for the reverse-splicing fitness values is the RNAGym collection of RNA variant scans (doi:10.1093/molbev/msab373).

In this data set the parent is B1. Put plainly: reverse-splicing fitness (ratio to wild type); higher = more active; in vitro selection; Mg2+ level not given. Put shortly: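 An in vitro group I ribozyme library with randomized positions was T7-transcribed and gel-purified. In triplicate, 10 pmol RNA in EPPS pH 7.5 was reacted with 50 pmoles of a 30-nt RNA substrate for 1 h at 37 °C across several added MgCl2 levels (1–48 mM), then stopped with EDTA. Products were reverse transcribed from a substrate-complementary primer, PCR-amplified and sequenced (HiSeq 4000). Fitness is a variant's read proportion after selection over that before, normalised to wild type.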
In the case of GUGCCUUGCGCCGGGAAACCACGCAAGGGAUGGUGUCAAAUUCGGCGAAACCUAAGCGCCCGCCCGGGCGUAUGGCAACGCGGAGCCAAGCUUCGGCGCCUGCGCCGAUGGAGGUGUAGUGACUAGACGGCACCCACCUAAGGCCAACGUUAUGGUGAAGGCAUAGUCAAGGGAGAGGCGAAAGUCACACAAACCGG, the reverse-splicing fitness is 0.00272. On to GUGCCUUGCGCCGGGAAACCACGCAAGGGAUGGUGUCAAAUUCGGCGAAACCUAAGCGCCCGCCCGGGCGUAUGGCAACGCAGAGCCAAGCUUCGGCGCCUGCGCCGAUGGAGGUGUAGGGACUAGACGGCACCCACCUAAGGCGAACGCUAUGGUGAAGGCAUAGUCCAGGGAGCGGCGAAAGUCACACAAACCGG, for which the reverse-splicing fitness was determined as 0.0205. Turning to GUGCCUUGCGCCGGGAAACCACGCAAGGGAUGGUGUCAAAUUCGGCGAAACCUAAGCGCCCGCCCGGGCGUAUGGCAACGCAGAGCCAAGCUUCGGCGCCUGCGCCGAUGGAGGUGUAGGGACUAGACGGCACCCACCUAAGGCAAACGCUAUGGUGAAGGCAUAGUCCAGGGAGAGGCGAAAGUCACACAAACCGG, the reverse-splicing fitness turned out to be 0.0146. With GUGCCUUGCGCCGGGAAACCACGCAAGGGAUGGUGUCAAAUUCGGCGAAACCUAAGCGCCCGCCCGGGCGUAUGGCAACGCAGAGCCAAGCUUCGGCGCCUGCGCCGAUGCAGGUGUAGGGACUAGACGGCACCCACCUAAGGCAAACGAUAUGGUGAAGGCAUAGUCAAGGGAGCGGCGAAAGUCACACAAACCGG, the reverse-splicing fitness was 0.0168.

On to GUGCCUUGCGCCGGGAAACCACGCAAGGGAUGGUGUCAAAUUCGGCGAAACCUAAGCGCCCGCCCGGGCGUAUGGCAACGCGGAGCCAAGCUUCGGCGCCUGCGCCGAUGAAGGUGUAGCGACUAGACGGCACCCACCUAAGGCAAACGCUAUGGUGAAGGCAUAGUCAAGGGAGCGGCGAAAGUCACACAAACCGG, for which the reverse-splicing fitness stood at 0.0179. As to GUGCCUUGCGCCGGGAAACCACGCAAGGGAUGGUGUCAAAUUCGGCGAAACCUAAGCGCCCGCCCGGGCGUAUGGCAACGCUGAGCCAAGCUUCGGCGCCUGCGCCGAUGAAGGUGUAGUGACUAGACGGCACCCACCUAAGGCGAACGAUAUGGUGAAGGCAUAGUCUAGGGAGUGGCGAAAGUCACACAAACCGG, the reverse-splicing fitness was determined as 0.00334. As to GUGCCUUGCGCCGGGAAACCACGCAAGGGAUGGUGUCAAAUUCGGCGAAACCUAAGCGCCCGCCCGGGCGUAUGGCAACGCUGAGCCAAGCUUCGGCGCCUGCGCCGAUGAAGGUGUAGAGACUAGACGGCACCCACCUAAGGCUAACGAUAUGGUGAAGGCAUAGUCUAGGGAGUGGCGAAAGUCACACAAACCGG, the reverse-splicing fitness worked out at 0.00825. As to GUGCCUUGCGCCGGGAAACCACGCAAGGGAUGGUGUCAAAUUCGGCGAAACCUAAGCGCCCGCCCGGGCGUAUGGCAACGCGGAGCCAAGCUUCGGCGCCUGCGCCGAUGUAGGUGUAGCGACUAGACGGCACCCACCUAAGGCUAACGAUAUGGUGAAGGCAUAGUCAAGGGAGAGGCGAAAGUCACACAAACCGG, the reverse-splicing fitness came to 0.0187. GUGCCUUGCGCCGGGAAACCACGCAAGGGAUGGUGUCAAAUUCGGCGAAACCUAAGCGCCCGCCCGGGCGUAUGGCAACGCCGAGCCAAGCUUCGGCGCCUGCGCCGAUGCAGGUGUAGCGACUAGACGGCACCCACCUAAGGCAAACGGUAUGGUGAAGGCAUAGUCAAGGGAGAGGCGAAAGUCACACAAACCGG: the reverse-splicing fitness worked out at 0.00884.

Take GUGCCUUGCGCCGGGAAACCACGCAAGGGAUGGUGUCAAAUUCGGCGAAACCUAAGCGCCCGCCCGGGCGUAUGGCAACGCUGAGCCAAGCUUCGGCGCCUGCGCCGAUGCAGGUGUAGGGACUAGACGGCACCCACCUAAGGCGAACGCUAUGGUGAAGGCAUAGUCAAGGGAGGGGCGAAAGUCACACAAACCGG: the reverse-splicing fitness came to 0.00456.

As to GUGCCUUGCGCCGGGAAACCACGCAAGGGAUGGUGUCAAAUUCGGCGAAACCUAAGCGCCCGCCCGGGCGUAUGGCAACGCAGAGCCAAGCUUCGGCGCCUGCGCCGAUGAAGGUGUAGAGACUAGACGGCACCCACCUAAGGCCAACGGUAUGGUGAAGGCAUAGUCCAGGGAGAGGCGAAAGUCACACAAACCGG, the reverse-splicing fitness is 0.0383.

Consider GUGCCUUGCGCCGGGAAACCACGCAAGGGAUGGUGUCAAAUUCGGCGAAACCUAAGCGCCCGCCCGGGCGUAUGGCAACGCUGAGCCAAGCUUCGGCGCCUGCGCCGAUGUAGGUGUAGAGACUAGACGGCACCCACCUAAGGCUAACGCUAUGGUGAAGGCAUAGUCAAGGGAGGGGCGAAAGUCACACAAACCGG, for which the reverse-splicing fitness amounted to 0.00592. As for GUGCCUUGCGCCGGGAAACCACGCAAGGGAUGGUGUCAAAUUCGGCGAAACCUAAGCGCCCGCCCGGGCGUAUGGCAACGCCGAGCCAAGCUUCGGCGCCUGCGCCGAUGUAGGUGUAGGGACUAGACGGCACCCACCUAAGGCAAACGCUAUGGUGAAGGCAUAGUCAAGGGAGAGGCGAAAGUCACACAAACCGG, the reverse-splicing fitness is 0.0264. As for GUGCCUUGCGCCGGGAAACCACGCAAGGGAUGGUGUCAAAUUCGGCGAAACCUAAGCGCCCGCCCGGGCGUAUGGCAACGCUGAGCCAAGCUUCGGCGCCUGCGCCGAUGGAGGUGUAGGGACUAGACGGCACCCACCUAAGGCAAACGUUAUGGUGAAGGCAUAGUCAAGGGAGCGGCGAAAGUCACACAAACCGG, the figure is 0.0129; as for GUGCCUUGCGCCGGGAAACCACGCAAGGGAUGGUGUCAAAUUCGGCGAAACCUAAGCGCCCGCCCGGGCGUAUGGCAACGCCGAGCCAAGCUUCGGCGCCUGCGCCGAUGAAGGUGUAGAGACUAGACGGCACCCACCUAAGGCAAACGCUAUGGUGAAGGCAUAGUCAAGGGAGUGGCGAAAGUCACACAAACCGG, 0.18.
